Target: γ-tubulin of pig brain γ-tubulin complexes (pig (endogenous in brain))
Assay: quantitative immunoblot of the purified complexes

“76p of pig brain γ-tubulin complexes (76-kD polypeptide, pig orthologue of h76p = hGCP4) (natural protein)” showed an abundance of 76p against γ-tubulin in the purified complexes of 5 fold.

Reference: PMC2156165
